Experimental data as given in the DeepSol protein solubility set.

Test: soluble on expression in E. coli; label from the status in PepcDB or PDB records

Row | Sequence | soluble on expression in E. coli
1 | MSLELKVHETILEVNLGAMVANLNHYRSMLKPETKMVCMVKASAYGAGSYEIAKTLQEHHADYLAVAVADEGSDLRKAGITASIIIMDPELTAFKTMFDYKLEPEVYNFHLLDALIKAAEKEGITNFPIHVKLDTGMHRLGFEEKDIPQLIRRLKNQNALIPRSVFSHFVGSDSAQFDAFTRQQIERYEKMSKELQDAFPHKILRHICNTAGIERFPGAQFDMVRLGIGLYGISPIDNSIINNVSTLKTTILQIRDVAEEDTVGYSRKGHLIRPSRIAAIPIGYADGLNRHLGCGHGYCLVNGKKAPYVGNICMDVCMIDVTDIDCREGDQAIIFGDELPITALSDALETIPYEVLTGISTRVKRVYYQDEGHHHHHH | soluble
2 | MSLELTISELKENFWGEYEYLDGGYMAARLAVLEHLEQIKRQSGIIIIREITEEYFAPVGNWHIRETVRNAMKNRLGKYDNLNLAISEVNKKLKAKINLFELRTINSLINQKSIYDFFKEGHHHHHH | not soluble
3 | MSLEMGMNWTHTPLALSALMFAMAAQATPNQATDAVAPEQATGFEHKSLVKAKNWMVTAANPLASEAGASILRQGGNAIDAMVTTQLMLGLVEPQSSGIGGGSFLVYWDAKKKALTTFDGRETAPLNATPELFLDSTGQPMKFYDAVVGGRSVGTPGTVKLLWETHRQYGKLEWARLIEPVAKLAEQGFEVSPRLAALIAEDKERLGRFPATKAYFFDAQGEPLTAGTLLKNPDYAATLRAIAQQGASAFYQGDIAKDIIATVQNAPGNPGVLAQQDFDTYQVKQRAPVCAAYQSYQVCGMGLPSSGGLTVGQILALTEQYDLKGWGAQDVKSWQVLGDASQLAFADRGLYMADQDYVPVPTQGLLDKTYLAERAKLIQPGKALTSAPAGNPPWHHAQLRSPDQSIELPSTSHFNIVDREGNVVSFTTSIENAFGSRLLVRGFLLNNELTDFSFATQSEGRPIANRLEPGKRPRSSMAPTIVLQDNQPYLAIGSPGGSRIIGYVAQAIVAHTQWGMNIQAAINQPHVLNRFGEIELEQGTSAEQFKPALESLGAKVGIKELNSGLHAIRITAQGLEGAADPRREGVAIGEGHHHHHH | not soluble
4 | MSLENIIARRYAKAIASRADINDFYQNLCILNSAFVLPKFKNIIESNEIKKERKMEFLDSFFDIKNSSFQNFLRLLIENSRLECIPQIVKELERQKAFKENIFVGIVYSKEKLSQENLKDLEVKLNKKFDANIKLNNKISQDDSVKIELEELGYELSFSMKALQNKLNEYILKIEGHHHHHH | not soluble
5 | MSLENKFARTVLGDIPVEKLGITDCHDHFIKNGGPEVEEHIDFLMLNVDASIKEFKEFIDRGGSTIVTMDPPNVGRDVLKTLEIANAVKNLGGNVIMSTGFHKAKFYDKYSSWLAVVPTEEIVKMCVAEIEEGMDEYNYNGPVVKRSKAKAGIIKAGTGYGAIDRLELKALEVAARTSILTGCPILVHTQLGTMALEVAKHLIGFGANPDKIQISHLNKNPDKYYYEKVIKETGVTLCFDGPDRVKYYPDSLLAENIKYLVDKGLQKHITLSLDAGRILYQRNYGLTKGKQTFGLAYLFDRFLPLLKQVGVSKEAIFDILVNNPKRVLAFDEKRNFDPLKVSKEVLELKKELNLNEGHHHHHH | soluble
6 | MSLENLNIENWPVDRLHHSEHATRRNEDAIPRMVDALRMFGFRIPLLVTGAGEVVDGHLRLKAALVMGMASVPVIVVDDMTPTQVRTFRLLINRSATWAEWDDEALRVELASLRDYGVDVTMTGFADAELDAFLQGVSLAGESDPDMVPPLPETPTSRPGDVWNMGGHRLLCGDSTSVEDVVRLMAGEQADMLWTDPPYNVDYSGKAGKIRNDKMSPEDFDAFLLRLLSRSYEALADGAAAYVAHSEAGGGTAFRKAFAHAGYKLASCLIWRKHQLVLGRGDYHWQHEPILYGWKPTGKHRWYGNRKHTTLLEHFAGQTVLPAGEGVWQVATGDAVLLIRGQDVTVEEVSTSILAVAKPARSELHPTMKPVALVERMVANSSPRGGLVLDPCGGSGTTLIACERMGRRCNTMELDPRFADVIVRRWEEVTGKTAVLEGGASFADVPLAREVAHEGHHHHHH | soluble
7 | MSLENSQELTPWQRLTIARMLERPTSLEYIDLIFDSFMEFHGDRAFGDDAAIVGGVAEFNGMPVTVIGQQKGRNTNENIKRNFGMPSPEGYRKALRLMKQAEKFNRPLICFVDTSGAYCGVEAEQRGQGEAIAKNLISMANLKIPVISVVIGEGGSGGALAMAVADEVWMLENSVYSLLSPEGFASILWKDSSRAKEAAEVMKITADDLKGYGIIDKVIKEPDGGAQNDITMVANALRENLKKAIEGLSSTGINELLDNRYNKFRQIGKFIENEDNEGHHHHHH | soluble
8 | MSLEPATAPRPDMAPELTPEEEQATKQFLEEINKWTVQYNVSPLSWNVAVKFLMARKFDVLRAVELFHCYRETRRKEGIVKLKPHEEPLRSEILSGKFTILNVRDPTGASIALFTARLHHPHKSAQHVVLQALFYLLDRAVDSFETQRNGLVFIYDMCGSNYANFELDLGKKVLNLLKGAFPARLKKVLIVGAPIWFRVPYSIISLLLKDKVRERIQILKTSEVTQHLPRECLPENLGGYVKIDLATWNFQFLPQVNGHPDPFDEIILSSLPPAEGHHHHHH | soluble
9 | MSLEQYFKRFLGEENAYFDEIHKRAYSYDATKKHYLPDGVLFPRNEEDIARILKFCNENNIIVIPRGSGSGFTGGALAVNGGVVLAFEKHMNKILEIDLENLVAVVQPGVINIHLQKEVAKYGLFYPPDPASMEYSSLGGNVSENAGGMRAAKYGITKDYVMALRAVLPSGEIIRAGKRTIKDVAGYNLAGILIASEGSLAVLSELTLKLIPLPKFKKTAFAIFPSVKSAMNAVYKSLASGVSPVSMEFLDNLSIRAVESKFNKGLPIEAGAILIADVDGNVKEAIDEDLRNLEHYFLEAGASEFKIAKDEQETADIWFARRNCSQSIAMYGTLKLNEDITVPRSKLPTLLEGIDEISKKYGFKIPCFGHTGDGNVHTNVMVPDKNDKEQVKKGYEAVEEIFKLTVKLGGTLSGEHGIGLSKAPFMNLAFSEAEMNLMRNIKKAFDPNNILNPFKMGLEGHHHHHH | soluble
10 | MSLERKLEIVKTKTENYTIKVDGVFIHSKYDPLREAETFAIKNIELIKNSRYIVIYGFGLGYHIEAVLRHMNEESMLAVFDADLEVIKEAKKQSLYKKLIKNPRLKCFFDYGDEFLKEFSKSLSLAKNIIIYRPSLKVLPEEFGHMARLLKGYELAKIEIEKHGKLAEYNYDMNLKKTHKKMQDFLSFYSFGCENIVLVSSGPSLDYNIESLKKVRDRVKIFCAGSAAEFLIKNHIIPDMICIIDPQDIVYTQLQSILNKNIPLCFLSSACSRVVSEWSGEKFLFFNDFNAARENNDVVVETGKSVATAILSIAVLKKPKKVIFIGQDLAYLNGKSHHDNYGSSQSSGIKKVRSVDGEYLETNEGFLYFKSWIEQKIMKSKDIEFINCSSGAEIKGTIASKLIDAIKEGHHHHHH | soluble
11 | MSLESENIISAADKARILAEALPYIRRFSGSVAVIKYGGNAMTEPALKEGFARDVVLLKLVGIHPVIVHGGGPQINAMLEKVGKKGEFVQGMRVTDKEAMDIVEMVLGGHVNKEIVSMINTYGGHAVGVSGRDDHFIKAKKLLIDTPEQNGVDIGQVGTVESIDTGLVKGLIERGCIPVVAPVGVGEKGEAFNINADLVAGKLAEELNAEKLLMMTNIAGVMDKTGNLLTKLTPKRIDELIADGTLYGGMLPKIASAVEAAVNGVKATHIIDGRLPNALLLEIFTDAGIGSMILGGGEDAEGHHHHHH | soluble
12 | MSLESSDVPRELIESIKDVIGRKIKISVKKKVKLEVKGDKVENKVLVLTSCRAFLVTARIPTKLELTFSYLEIHGVVCSKSAQMIVETEKCSISMKMASPEDVSEVLAHIGTCLRKIFPGLSPVRIMKKVSMEPSERLASLQALWDSQTVAEQGPCGGFSQMYACVCDWLGFSYREEVQWDVDTIYLTQDTRELNLQDFSHLDHRDLIPIIAALEYNQWFTKLSSKDLKLSTDVCEQILRVVSRSNRLEELVLENAGLRTDFAQKLASALAHNPNSGLHTINLAGNPLEDRGVSSLSIQFAKLPKGLKHLNLSKTSLSPKGVNSLSQSLSANPLTASTLVHLDLSGNVLRGDDLSHMYNFLAQPNAIVHLDLSNTECSLDMVCGALLRGCLQYLAVLNLSRTVFSHRKGKEVPPSFKQFFSSSLALMHINLSGTKLSPEPLKALLLGLACNHNLKGVSLDLSNCELRSGGAQVLEGCIAEIHNITSLDISDNGLESDLSTLIVWLSKNRSIQHLALGKNFNNMKSKNLTPVLDNLVQMIQDEESPLQSLSLADSKLKTEVTIIINALGSNTSLTKVDISGNGMGDMGAKMLAKALQINTKLRTVIWDKNNITAQGFQDIAVAMEKNYTLRFMPIPMYDASQALKTNPEKTEDALQKIENYLLRNHETRKEGHHHHHH | soluble
13 | MSLESYVPNNEAKFPENISYGSMGGPTFSTVISELGGGKEQRKVNWTHSRNRYNVAYNTASSDQCSALISFFYAHRGKALPFRFKDWSDYTATGQNIGVGDGKSLNFQLVKRYHAGQYSYVRKISRPVVGTVKMSLGEVSQEYERDYSVDYNSGVVTFAVPPAHNATIHADFEFDVLVRFDTDFLAFAMEAHGNYGCHGVSLVEVSEEGHHHHHH | soluble
14 | MSLETKVAARDLSSLLSHCEAPVAALTVTAFKCKASACSVAPAPGSNTGLGALMSMAQAAQGLQTFPNIGDGLSNALTTALKTTGCFKVMAREDFEDLRREAEAAGITLKSASADYLVTGAITSLAVGAKTQSFGGGFVPLVGAVSRSTKSANISIDVRLVDVKASEVKASQTFDVSNERSSWGAGGAGWGGSGALFGAASSTQSPELDSVANESVIQAANYIVTQVAGSAAIPPVAAITKEGHHHHHH | not soluble
15 | MSLETTHSFGDRAVFAFGKHTGKIFKYAPRVLKDQDPEDLHQLRVGVRRLRTAVIGFMPAVQLPQGITERKIGKIGQQLGVQRDNDVLQEILLHKYLPHLPTSEQGCLEKVLKRLQKERKQAFKATYKLLTHDKFTQFKQSWEIWLEHPHFTSLGGLAIADVLPDLLLPQLSQFFLHPGWLVGTEIDPDTNSSNRQRRCIDLSPTAIETLLDGEESILHDLRKEAKRTRYQMELFSDYFGEEYQQLLAQVKMTQEILGNLQDSFVLRAMVEQYLDVDLKQLCPQWSAIFHGDRLGYWDQWQPLQSQFIDPVYRHHCRQLVQNPLVNSDQPTSSNLEGHHHHHH | soluble
16 | MSLETVLVPVDFTIEKEDLLGCIGEFKNAGLKKVILLHVVDIHKSQGLAPMFERNAKKRIEDYTGFAEELGLETEALVVVGDIKRTISETADRKNVDAIIMGATAKGFIKGRFLGRTTEHIARSSKKILLVEKYDALKEGKEFYKNACRATFSRVLVPLDFSKESMKAIEQLQEFGGIVKEVLLLHVIDNIKDMDLLDEQREEAKGKLGRIKEQLTGIKSQYLVVEGIPSDEIVKFANIEEATMIMLTSRGKGDLIDLILGSTAESVLRKTIKPVLIIPASKEFDGEEGHHHHHH | soluble
17 | MSLEVNVEGKLEAMQAVVGAKAVPFAGTQAEPIQIAMIYPSADTSDFWARNYIAMTKRLEELGIQFETTEFASRQIEHSLQSTYANQVVQDADLYDFVIFGPSELAIQADNIDKMAASEGFSTFVWAFHTPLKDLKNQPDGWFDFSSAAGALTMCDYMLGRLGNDVTMAMNRGIPGITDDQRSGDFKACVEEKGNWTTIYEHYGEYQREGGFEGTSLILQAYPEATVIHNANTAMAMGSVEAQISVGKEKEVFSTGWGGTGLELDAIRRGELDATPMRMGDDVGAATAEAIKAHLEGRSDELPFVFLGRITVAHDQMSAEEIDALEAEAFRFSGVGALEREGHHHHHH | not soluble
